# What was measured:
# [1] = target: NRP2 a2b1b2 (human neuropilin 2 residues 145 to 595, monomeric IgG1 Fc tag) (human) (UniProt O60462); assay: BLI
# [2] = target: monoFc-tagged NRP2 (human neuropilin 2 a1a2b1b2, residues 23 to 595) (human) (UniProt O60462); assay: BLI
# Chain of monoFc-tagged NRP2 (human neuropilin 2 a1a2b1b2, residues 23 to 595) (human) (O60462 23-595): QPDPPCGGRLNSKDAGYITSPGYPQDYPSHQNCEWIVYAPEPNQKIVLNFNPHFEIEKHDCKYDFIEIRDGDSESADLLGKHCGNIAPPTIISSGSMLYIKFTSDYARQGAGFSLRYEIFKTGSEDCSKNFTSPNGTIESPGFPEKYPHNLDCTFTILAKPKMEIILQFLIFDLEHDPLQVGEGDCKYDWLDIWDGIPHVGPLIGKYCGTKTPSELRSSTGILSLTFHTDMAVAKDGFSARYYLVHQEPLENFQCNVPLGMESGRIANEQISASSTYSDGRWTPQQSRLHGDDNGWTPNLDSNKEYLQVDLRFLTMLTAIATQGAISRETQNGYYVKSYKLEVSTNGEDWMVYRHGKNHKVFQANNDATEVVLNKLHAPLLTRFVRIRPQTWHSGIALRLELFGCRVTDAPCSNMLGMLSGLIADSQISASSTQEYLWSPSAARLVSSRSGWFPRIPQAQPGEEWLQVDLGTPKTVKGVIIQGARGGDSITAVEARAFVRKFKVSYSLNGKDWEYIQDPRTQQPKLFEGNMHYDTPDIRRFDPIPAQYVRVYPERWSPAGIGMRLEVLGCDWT
# Chain of NRP2 a2b1b2 (human neuropilin 2 residues 145 to 595, monomeric IgG1 Fc tag) (human) (O60462 145-595): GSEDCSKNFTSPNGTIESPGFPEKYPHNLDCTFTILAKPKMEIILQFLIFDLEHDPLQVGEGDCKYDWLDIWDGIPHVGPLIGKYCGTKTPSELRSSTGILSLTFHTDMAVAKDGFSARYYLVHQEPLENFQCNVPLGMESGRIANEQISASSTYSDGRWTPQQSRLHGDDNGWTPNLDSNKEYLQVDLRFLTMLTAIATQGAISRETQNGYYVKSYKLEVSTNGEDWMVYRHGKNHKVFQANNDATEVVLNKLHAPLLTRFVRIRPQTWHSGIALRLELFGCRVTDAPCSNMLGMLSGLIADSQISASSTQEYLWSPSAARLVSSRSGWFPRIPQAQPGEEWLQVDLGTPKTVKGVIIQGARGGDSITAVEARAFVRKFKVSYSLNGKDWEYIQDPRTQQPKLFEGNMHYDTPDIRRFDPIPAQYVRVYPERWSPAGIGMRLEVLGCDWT
substance,measurement,setting,value
soluble ectodomain of the HCMV Pentamer (strain Towne) (from UniProt P17176 24-718) (complex),Kd,[1],7.9 nM
same,Kd,[2],2.2 nM
